Measurements from patent publication US11267842B2, “Enzymatic modification of nucleic acids” (The Regents of the University of California, priority 2015, dated 2022).

Substrate: CN1/C(=C/c2cc[n+](CCCCCC(=O)NCCOCCOCCOCCNCc3c[nH]c4nc(N)[nH]c(=O)c34)c3ccccc23)Sc2ccccc21
Test: Estimation of PreQ1-TO substrate kinetics with ECY-A1 catalyzed by TGT
Assay type: biochemical, E. coli
Conditions: other: estimated from initial rates by fluorescence, 10 μM ECY-A1, 100 nM TGT, 37° C.
Method: Estimation of PreQ1-TO substrate kinetics with ECY-A1. An estimation of PreQ1-TO substrate kinetics with ECY-A 1 was performed under similar concentrations and conditions to that found from previous kinetic analyses using radiolabeled substrates.^2 A triplicate set of 20 μL reactions was analyzed using a Tecan Saphire-II plate reader in a Greiner 384 well flat bottom plate (VWR, CAT# 89089−584). Each well was prepped with 10 μM ECY-A 1 and a variable amount (from 100 μM to 10 nM in serial ⅓ dilutions) of PreQ1-TO in TGT reaction buffer. The plate was covered and allowed to warm up to 37° C. for 10 minutes. […] Each well was then covered with 10 μL of light mineral oil (to prevent evaporation of water) and the plate was immediately subjected to a fluorescence reading for the first kinetic time point at 37° C. Each well was monitored with an excitation of 501 nm and emission of 531. […] The gain was held fixed and the integration time set to 1 second with 10 reads averaged to each data point collected. The sample was monitored for 30 minutes at 37° C. with a reading taken every 2 minutes. The data was worked up using an ECY-A1-PreQ1-TO calibration curve to convert fluorescence into concentration of product in each sample for each time point to achieve an estimation of the initial rate of each reaction in M^−1/s^−1. […] This curve was analyzed with Graph Pad Prism v. […]

B1: bacterial (E.coli) tRNA guanine transglycosylase (TGT) (Escherichia coli K-12) (protein)
chain: MKFELDTTDGRARRGRLVFDRGVVETPCFMPVGTYGTVKGMTPEEVEATGAQIILGNTFHLWLRPGQEIMKLHGDLHDFMQWKGPILTDSGGFQVFSLGDIRKITEQGVHFRNPINGDPIFLDPEKSMEIQYDLGSDIVMIFDECTPYPADWDYAKRSMEMSLRWAKRSRERFDSLGNKNALFGIIQGSVYEDLRDISVKGLVDIGFDGYAVGGLAVGEPKADMHRILEHVCPQIPADKPRYLMGVGKPEDLVEGVRRGIDMFDCVMPTRNARNGHLFVTDGVVKIRNAKYKSDTGPLDPECDCYTCRNYSRAYLHHLDRCNEILGARLNTIHNLRYYQRLMAGLRKAIEEGKLESFVTDFYQRQGREVPPLNVDHHHHHH
notes: His6 (C); made in house; host or cells: E. coli BL21
  Km: 9.8 µM
  kcat: 0.0016 s⁻¹
